# Positions count from the first letter of the chain named. Names may count otherwise.
# B1: recombinant PH1704 protease from Pyrococcus horikoshii OT3 (enzyme, UniProt O59413 1-166, looked up)
# chain: MKVLFLTANEFEDVELIYPYHRLKEEGHEVYIASFERGTITGKHGYSVKVDLTFDKVNPEEFDALVLPGGRAPERVRLNEKAVSIARKMFSEGKPVASICHGPQILISAGVLRGRKGTSYPGIKDDMINAGVEWVDAEVVVDGNWVSSRVPADLYAWMREFVKLLK
# notes: PH1704 protease, Pyrococcus horikoshii OT3, gene amplified from genomic DNA with primers at the start and at the stop codon, cloned NdeI/BamHI into pET-15b; The tag is known from detection with an anti-His tag antibody; also called WT; source: E. coli BL21 (DE3), purified (heat incubation at 80°C, Sephacryl S-200); copies: 12
# B2: PH1704 protease (Pyrococcus horikoshii OT3; Y120S) (protein)
# chain: B1 chain with Y120S
# notes: full-length gene in pET-15b (NdeI/BamHI), His-tag (detected by anti-His western blot), E. coli BL21(DE3); heat step and Sephacryl S-200
# B3: PH1704 protease (Pyrococcus horikoshii OT3; Y120W) (protein)
# chain: B1 chain with Y120W
# notes: as for B2
# B4: PH1704 protease (Pyrococcus horikoshii OT3; Y120P) (protein)
# chain: B1 chain with Y120P
# notes: as for B2
# Target: the molecule itself
# Experiment: native gel or EMSA; non-denaturing PAGE (10% resolving gel, 5% stacking gel), Coomassie stain and anti-His western blot; size read against a high molecular weight protein marker
# Details: not given
row,Protein,stoichiometry N
1,B1,12

# Substrate: Cc1cc(=O)oc2cc(NC(=O)[C@@H](N)CCCNC(=N)N)ccc12
# Experiment: fluorescence of released amc, Hill equation fit
# Assay type: biochemical, Pyrococcus horikoshii
# Details: 50 mM sodium phosphate pH 7.5, 358 K, 60 min, aminopeptidase, 85.0 °C
# Description: fluorescence of released amc, Hill equation fit on PH1704 protease
Protein,Km [µM],kcat [s⁻¹],kcat/Km [M⁻¹ s⁻¹]
B1,12 ± 0.65,0.0108 ± 0.000833,867 ± 133
B2,9.0 ± 0.43,0.00245 ± 0.000167,400 ± 66.7
B3,20.6 ± 0.77,0.02 ± 0.00117,1100 ± 83.3
B4,11.3 ± 0.59,0.0728 ± 0.002,6630 ± 417

# From article PMC4156298, “Characterization of the PH1704 Protease from Pyrococcus horikoshii OT3 and the Critical Functions of Tyr120” (PLoS ONE, 2014)
